This is an account of results in patent publication CN114591431A.

In this test the target is 重组人GAS6 his 蛋白(Novoprotein，Cat#C01W) (human) (UniProt Q14393). Description: ELISA, coated human GAS6 his 0.5 ug/ml, positive control. On the technique in general: An ELISA detects its analyte on a solid surface through an enzyme-linked reagent.

Usually EC50 stands for the concentration at which the effect is half-maximal. A high value points to lower potency in that assay.

UniProt Q14393, sequence (Q14393 31-678 limits assumed, stated change not applied): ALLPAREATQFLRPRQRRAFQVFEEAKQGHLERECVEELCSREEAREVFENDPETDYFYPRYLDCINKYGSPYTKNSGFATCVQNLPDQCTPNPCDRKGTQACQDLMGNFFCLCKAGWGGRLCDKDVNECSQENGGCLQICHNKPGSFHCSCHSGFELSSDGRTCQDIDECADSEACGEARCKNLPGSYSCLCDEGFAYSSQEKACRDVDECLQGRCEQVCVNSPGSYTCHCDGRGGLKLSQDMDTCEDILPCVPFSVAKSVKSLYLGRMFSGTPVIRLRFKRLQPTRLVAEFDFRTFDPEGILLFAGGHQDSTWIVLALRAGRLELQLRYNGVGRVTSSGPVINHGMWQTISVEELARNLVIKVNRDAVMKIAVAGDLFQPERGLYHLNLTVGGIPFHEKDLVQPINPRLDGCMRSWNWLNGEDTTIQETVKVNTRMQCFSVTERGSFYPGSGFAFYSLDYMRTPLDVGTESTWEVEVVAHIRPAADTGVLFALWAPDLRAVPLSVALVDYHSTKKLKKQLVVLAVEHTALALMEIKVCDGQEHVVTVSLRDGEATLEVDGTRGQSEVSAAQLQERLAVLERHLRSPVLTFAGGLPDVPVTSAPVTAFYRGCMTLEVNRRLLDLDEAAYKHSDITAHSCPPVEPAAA

With “anti-huGas6 antibody (Santa cruz, sc-376087)”, the EC50 is 0.43 nM.
